The record followed here is publication doi:10.1101/481887.

By stoichiometry N is commonly meant the number of molecules, sites or subunits per partner or assembly. What is called Kd is the free concentration of one partner at which half of the binding sites on the other are occupied at equilibrium, for simple one-to-one binding. Higher therefore signals a looser complex.

Assay [1] has as its target COPY^o2 (Atto532-stathmin-Atto647N). The experiment in a line: other fluorescence titration.
The next assay has as its target phosphorylated COPY^o2. As to the kind of experiment: other fluorescence titration.
The target in another assay is Gly-C2-iLID. As to the kind of experiment: confocal imaging of light-induced recruitment to GUV membranes.

As to “α,β-tubulin dimers (from UniProt P02550 1-451; P02554 1-445) (complex)”, in assay [1], the KD, high affinity site was found to be 30 nM; the KD, low affinity site worked out at 2000 nM; the k off,stath (1:1 stathmin-tubulin complex; site not named) came out at 0.048 s⁻¹; the k on,stath (1:1 stathmin-tubulin complex; site not named) was 16 s⁻¹. The stoichiometry N in assay [1] was 2. In the assay with phosphorylated COPY^o2, this substance gave a k off,p-stath (1:1 phosphorylated stathmin-tubulin complex; site not named) of 2.3 s⁻¹ and a k on,p-stath (1:1 phosphorylated stathmin-tubulin complex; site not named) of 1.8 s⁻¹.

“SspB (Stringent starvation protein B) (from UniProt P0AFZ3 1-165) (natural protein)”: the Kd in the assay with Gly-C2-iLID was determined as 360 nM. That is a sub-micromolar value.
